Substrate: CCn1c(=NN=c2sc3cc(S(=O)(=O)O)ccc3n2CC)sc2cc(S(=O)(=O)O)ccc21
Assay: purified protein
Assay type: biochemical, Staphylococcus haemolyticus
Conditions: 100 mM sodium acetate pH 4.5, 30°C, ABTS 50-1,000 μM, 5.21 mg/l enzyme

B1: Mco (Staphylococcus haemolyticus) (protein)
chain: MYNKVFTILIIIFSIIIIASNDTFAESKNDMMNMKEDKKNTMDMTNMKHHDERKKLNSSQGKNEIIFPEVAESKKDNNGYKNYTLKAQKGKTEFYKNNFSNTLGYNGNLLGPTLKLKKGDKVKIKLINNLDENTTFHWHGLEVNGKVDGGPSQVIKPGKEKTIKFEVNQDSATLWYHPHPSPNTAKQVYNGLSGLLYIEDSKKNNYPSNYGKNDLPIIIQDKTFVSKKLNYSKTKDEDGTQGDTVLVNGIVNPKLTAKEEKIRLRLLNGSNARDLNLKLSNNQSFEYIASDGGQLKNAKKLKEINLAPSERKEIVIDLSKMKGEKVSLVDNDKTVILPISNKEKSSNKSNTPKVSKKIKLEGMNDNVTINGNKFDPNRIDFTQKLNQKEVWEIENVKDKMGGMKHPFHIHGTQFKVLSVDGEKPPKDMRGKKDVISLEPGQKAKIEVVFKNTGTYMFHCHILEHEDNGMMGQIKVTN
notes: expressed in E. coli pG-KJE8/BL21
- Km: 139.8 µM
- kcat: 6.87 s⁻¹
